The results in this text go back to patent US20210188971A1 (QUIDEL, published 2021).

For the test, the target named is T1, L1-10 fusion protein (human).
T1 construct: also called L1-10, unlabeled; L1-10 antigen
In words: indirect sandwich luminescence ELISA, L1-10 held by anti-MBP or StrepMAb on RAM. On the technique in general: In an ELISA, binding on a coated surface is turned into a signal by an enzyme label.

Description: Appropriate diluted standards were prepared along with controls and samples in a Assay Diluent in a separate non-sticky plate. 50 μl or 100 μl of each antibody or antigen (at indicated concentrations) were pipetted to the plate wells. Plates were sealed and incubated for 60 minutes at RT (unless otherwise indicated). The plates were washed with PBST 4×. 50 μl/well of Furimazine substrate was pipetted and incubated for 3 minutes at RT.
The mouse monoclonal antibody served as the anchor for L1-10.

B1: M22_NLuc_HisTag antibody protein (antibody, human IgG1, lambda)
heavy: not shown
light: LTVLTQPPSVSGAPRQRVTISCSGNSSNIGNNAVNWYQQLPGKAPKLLIYYDDQLPSGVSDRFSGSRSGTSASLAIRGLQSEDEADYYCTSWDDSLDSQLFGGGTRLTVLGQPKAAPSVTLFPPSSEELQANKATLVCLISDFYPGAVTVAWKADSSPVKAGVETTTPSKQSNNKYAASSYLSLTPEQWKSHKSYSCQVTHEGSTVEKTVAPTECS
notes: also called M22_Luc; mAb Nluc-His
On to B1, for which the binding result is “binds”.
